For assay [1], the target named is T1, proNGF binding to Sortilin (Homo sapiens, UniProt Q99523).
T1 construct: to 51 fmol/mm^2 purified Sortilin extracellular domain (lower panel); made in house; host or cells: Sortilin: stably transfected CHO cells; proNGF: E. coli
T1 sequence (Q99523 78-755 limits assumed): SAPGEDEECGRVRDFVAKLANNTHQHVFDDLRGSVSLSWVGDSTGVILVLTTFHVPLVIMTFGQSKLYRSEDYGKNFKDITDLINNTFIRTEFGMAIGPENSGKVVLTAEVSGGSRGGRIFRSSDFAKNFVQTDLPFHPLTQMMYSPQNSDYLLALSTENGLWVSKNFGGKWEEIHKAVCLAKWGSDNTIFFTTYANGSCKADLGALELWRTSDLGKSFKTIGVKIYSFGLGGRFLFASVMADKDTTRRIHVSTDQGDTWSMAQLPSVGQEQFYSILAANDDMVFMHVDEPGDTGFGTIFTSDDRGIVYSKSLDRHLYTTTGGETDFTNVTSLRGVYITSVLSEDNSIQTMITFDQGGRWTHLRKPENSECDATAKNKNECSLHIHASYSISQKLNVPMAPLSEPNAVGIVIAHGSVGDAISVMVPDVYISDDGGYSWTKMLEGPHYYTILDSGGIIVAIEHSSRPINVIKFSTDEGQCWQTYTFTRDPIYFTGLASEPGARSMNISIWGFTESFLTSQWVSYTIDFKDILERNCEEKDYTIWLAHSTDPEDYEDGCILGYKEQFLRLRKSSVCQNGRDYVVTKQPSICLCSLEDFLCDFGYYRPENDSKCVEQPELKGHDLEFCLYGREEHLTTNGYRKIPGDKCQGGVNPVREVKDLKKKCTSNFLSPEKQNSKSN
The experiment in a line: Inhibition of proNGF binding to immobilized Sortilin (BIAcore). Conditions: prebound then coinjected, 51 fmol/mm^2 Sortilin. For orientation: Surface plasmon resonance follows binding to a sensor surface in real time, without labels.
Description: FIG. 6: Inhibition of proNGF binding to immobilized Sortilin by RAP (receptor-associated protein), the propeptide of proNGF, and the Sortilin propeptide. The inhibitors were prebound to Sortilin followed by coinjection with 200 nM proNGF. […] Maximal proNGF binding is measured without preincubation with the respective inhibitors.

Assay [2] addresses T2, Sortilin extracellular domain (Homo sapiens, UniProt Q99523).
T2 construct: purified Sortilin extracellular domain (lower panel); made in house; host or cells: CHO cells (stably transfected)
T2 sequence (Q99523 78-755 limits assumed): T1 sequence (Q99523 78-755 limits assumed)
The experiment in a line: Surface plasmon resonance (BIAcore) binding to immobilized purified Sortilin extracellular domain. Here is the method:
(§1) FIG. 2: Characterization of NGF binding to p75, TrkA, and Sortilin as measured by surface plasmon resonance analysis (BIAcore). Binding of 50-500 nM NGF was measured to 91.5 fmol/mm^2 immobilized p75-IgG-Fc chimeric protein (upper panel), to 66 fmol/mm^2 immobilized TrkA-IgG-Fc (middle panel), and to 51 fmol/mm^2 purified Sortilin extracellular domain (lower panel).
(§2) Mature murine NGF was from Austral Biologicals (San Ramon, Calif.), recombinant human p75 neurotrophin receptor/Fc and human TrkA/Fc chimeras were from R&D systems (Oxon, UK). Human Sortilin was produced in stably transfected CHO-cells and purified as described elsewhere (Munck Petersen et al, EMBO J. (1999) 18:595-604).
(§3) FIG. 3: Characterization of proNGF binding to p75, TrkA, and Sortilin as measured by surface plasmon resonance analysis (BIAcore). Binding of 25-500 nM proNGF was measured to 91.5 fmol/mm^2 immobilized p75-IgG-Fc chimeric protein (upper panel), to 66 fmol/mm^2 immobilized TrkA-IgG-Fc (middle panel), and to 51 fmol/mm^2 purified Sortilin extracellular domain (lower panel).
(§4) FIG. 4: Characterization of binding of the proNGF propeptide to p75, TrkA, and Sortilin as measured by surface plasmon resonance analysis (BIAcore). Binding of 25-500 nM propeptide was measured to 91.5 fmol/mm^2 immobilized p75-IgG-Fc chimeric protein (upper panel), to 66 fmol/mm^2 immobilized TrkA-IgG-Fc (middle panel), and to 51 fmol/mm^2 purified Sortilin extracellular domain (lower panel).
FIG. 7: Characterization of proBDNF and BDNF binding to purified Sortilin as measured by surface plasmon resonance (BIAcore). Rat proBDNF was produced in 293 cells as described in Lee, R., Kermani, P., Teng, K. K. & Hempstead, B. L. Regulation of cell survival by secreted proneurotrophins. Science 294, 1945-1948 (2001). and purified from the conditioned medium. Mature recombinant human BDNF was from Promega (#G1491) and the pro-domain of human BDNF fused to GST (glutathione S-transferase) was produced in E. coli and purified by glutathione-sepharose affinity chromatography. Binding of 5-500 nM proBDNF (upper panel), pro-domain of proBDNF (a GST-fusion protein, middle panel) or BDNF (lower panel) was measured to 94 fmol/mm2 immobilized purified Sortilin extracellular domain. The experiment was carried out essentially as described for FIGS. 2-4.
(§5) All the data provided in FIG. 2-7 are obtained by surface plasmon resonance measurements (BIAcore analysis)

Assay [3] concerns the target T3, p75 neurotrophin receptor/Fc (Homo sapiens, UniProt P08138).
T3 construct: purchased R&D systems (Oxon, UK)
The experiment in a line: Surface plasmon resonance (BIAcore) binding to immobilized p75-IgG-Fc chimeric protein. Conditions: 91.5 fmol/mm^2 immobilized p75-IgG-Fc; for Kd: BIAcore. On the procedure:
as §1, §2, §3, §4, §5

Another assay has as its target TrkA/Fc. The experiment in a line: Surface plasmon resonance (BIAcore) binding to immobilized TrkA-IgG-Fc. Also on record: species or system human. The conditions noted are these: 66 fmol/mm^2 immobilized TrkA-IgG-Fc; for Kd: BIAcore. On the procedure: as §1, §2, §3, §4, §5
The mark [4] stands for this setting: 5-500 nM ligand, 94 fmol/mm2 immobilized purified Sortilin extracellular domain, read-out: Kd for ligand binding to Sortilin.
Where [5] appears, read: 51 fmol/mm^2 purified Sortilin extracellular domain, BIAcore, read-out: Kd for binding to Sortilin.

Read-outs that look alike come from different tables or passages of the source.

Experimental findings from patent US9605073B2, “Modulation of activity of neurotrophins” (H. Lundbeck, priority 2002, dated 2017) are described below.

T3 sequence (P08138 with tags, fused parts or gaps limits assumed): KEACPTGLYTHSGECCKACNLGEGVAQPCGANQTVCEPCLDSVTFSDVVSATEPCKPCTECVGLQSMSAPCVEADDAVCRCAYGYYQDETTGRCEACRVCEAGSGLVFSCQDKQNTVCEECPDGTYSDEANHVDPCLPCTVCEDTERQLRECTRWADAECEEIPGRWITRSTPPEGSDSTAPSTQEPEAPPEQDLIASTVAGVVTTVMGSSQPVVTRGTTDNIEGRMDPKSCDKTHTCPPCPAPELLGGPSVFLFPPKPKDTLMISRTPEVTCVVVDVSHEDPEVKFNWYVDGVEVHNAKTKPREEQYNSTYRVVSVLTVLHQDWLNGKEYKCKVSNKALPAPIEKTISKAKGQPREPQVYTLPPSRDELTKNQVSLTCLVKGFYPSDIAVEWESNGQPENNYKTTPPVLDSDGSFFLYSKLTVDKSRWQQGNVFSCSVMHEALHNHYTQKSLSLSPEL

“Sortilin propeptide: Propeptide of Sortilin; SEQ ID NO: 1 amino acid residue 34-77, binds the processed receptor (QDRLDAPPPPAAPLPRWSGPIGVSWGLRAAAAGGAFPRGGRWRR; listed as Homo sapiens)”: the “inhibition of binding of 200 nM proNGF to immobilized Sortilin” value (“inhibition of binding of 200 nM proNGF” below) in assay [1] (inhibitor 5 μM) is reported as approximately 65%.
For the molecule “mature BDNF: Mature recombinant human BDNF from Promega (#G1491)”, the Kd (in general, the free concentration of one partner at which half of the binding sites on the other are occupied at equilibrium, for simple one-to-one binding) in assay [2] (setting [4]) was approximately 40 nM; in assay [2] (other preparations of mature BDNF, read-out: Kd for ligand binding to Sortilin), 10 nM.
As to “proNGF: Human recombinant proNGF produced and purified in E. coli”, the Kd is approximately 12 nM in assay [3], approximately 15 nM on TrkA/Fc and approximately 5 nM in assay [2] (setting [5]).

B1: NGF: Mature murine NGF from Austral Biologicals (protein)
chain: SSTHPVFHMGEFSVCDSVSVWVGDKTTATDIKGKEVTVLAEVNINNSVFRQYFFETKCRASNPVESGCRGIDSKHWNSYCTTTHTFVKALTTDEKQAAWRFIRIDTACVCVLSRKATRRG
Regarding B1, the results for the Kd (in assay [3]; at TrkA/Fc; in assay [2] (setting [5])) were approximately 1 nM, approximately 2 nM and approximately 87 nM, respectively.

B2: proNGF propeptide: Human NGF-propeptide expressed in E. Coli; SEQ ID NO: 6 amino acid residue 19-121 (protein, listed as Homo sapiens)
chain: EPHSESNVPAGHTIPQVHWTKLQHSLDTALRRARSAPAAAIAARVAGQTRNITVDPRLFKKRRLRSPRVLFSTQPPREAADTQDLDFEVGGAAPFNRTHRSKR
Consider B2, for which the “binding to p75” value in assay [3] (25-500 nM propeptide) is given as “no detectable binding”. Besides, the “binding to TrkA” value in the assay with TrkA/Fc (25-500 nM propeptide) was “no detectable binding”. In assay [2] (setting [5]), the dissociation constant Kd is approximately 87 nM. The “inhibition of binding of 200 nM proNGF” value in assay [1] (inhibitor 5 μM) is reported as approximately 85%.

B3: RAP: Receptor-associated protein, cellular protein of about 300 amino acids, SEQ ID NO: 12 (protein, listed as Homo sapiens)
chain: MAPRRVRSFLRGLPALLLLLLFLGPWPAASHGGKYSREKNQPKPSPKRESGEEFRMEKLNQLWEKAQRLHLPPVRLAELHADLKIQERDELAWKKLKLDGLDEDGEKEARLIRNLNVILAKYGLDGKKDARQVTSNSLSGTQEDGLDDPRLEKLWHKAKTSGKFSGEELDKLWREFLHHKEKVHEYNVLLETLSRTEEIHENVISPSDLSDIKGSVLHSRHTELKEKLRSINQGLDRLRRVSHQGYSTEAEFEEPRVIDLWDLAQSANLTDKELEAFREELKHFEAKIEKHNHYQKQLEIAHEKLRHAESVGDGERVSRSREKHALLEGRTKELGYTVKKHLQDLSGRISRARHNEL
For B3, the “inhibition of binding of 200 nM proNGF” value in assay [1] (inhibitor 10 μM) is recorded as approximately 65%.

B4: GST-pro-domain of proBDNF: Pro-domain of human BDNF fused to GST, produced in E. coli (protein)
chain: APMKEANIRGQGGLAYPGVRTHGTLESVNGPKAGSGLTSLADTFEHVIEELLDEDQKVRPNEENNKDADLYTSRVMLSSQVPLEPPLLFLLEEYKNYLDAANMSMRVRR
modifications: left off: a dimerising Fc or GST
notes: Pro-domain of human BDNF fused to GST, produced in E. coli
Consider B4, for which, in assay [2] (setting [4]), the Kd was approximately 58 nM.

B5: proBDNF: Rat proBDNF produced in 293 cells and purified from the conditioned medium (protein)
chain: APMKEANVHGQGNLAYPAVRTHGTLESVNGPRAGSRGLTTTSLADTFEHVIEELLDEDQKVRPNEENHKDADLYTSRVMLSSQVPLEPPLLFLLEEYKNYLDAANMSMRVRRHSDPARRGELSVCDSISEWVTAADKKTAVDMSGGTVTVLEKVPVSKGQLKQYFYETKCNPMGYTKEGCRGIDKRHWNSQCRTTQSYVRALTMDSKKRIGWRFIRIDTSCVCTLTIKRGR
As for B5, the dissociation constant (Kd) in assay [2] (setting [4]) is approximately 3 nM.
